Experimental data: publication PMC11861601, “Multitarget mechanism of MYC inhibition by the bacterial lon protease in disease” (Scientific Reports, 2025)

B1: His-tagged full-length N-MYC (natural protein, human, UniProt P04198 1-464, looked up)
chain: MPSCSTSTMPGMICKNPDLEFDSLQPCFYPDEDDFYFGGPDSTPPGEDIWKKFELLPTPPLSPSRGFAEHSSEPPSWVTEMLLENELWGSPAEEDAFGLGGLGGLTPNPVILQDCMWSGFSAREKLERAVSEKLQHGRGPPTAGSTAQSPGAGAASPAGRGHGGAAGAGRAGAALPAELAHPAAECVDPAVVFPFPVNKREPAPVPAAPASAPAAGPAVASGAGIAAPAGAPGVAPPRPGGRQTSGGDHKALSTSGEDTLSDSDDEDDEEEDEEEEIDVVTVEKRRSSSNTKAVTTFTITVRPKNAALGPGRAQSSELILKRCLPIHQQHNYAAPSPYVESEDAPPQKKIKSEASPRPLKSVIPPKAKSLSPRNSDSEDSERRRNHNILERQRRNDLRSSFLTLRDHVPELVKNEKAAKVVILKKATEYVHSLQAEEHQLLLEKEKLQARQQQLLKKIEHARTC
notes: N-MYC, human, full length; source: bought: Signalway (SAB Signalway Antibody), Cat# AP72694
B2: Lon N-terminal domain peptide (aa 1-245) (domain or fragment, E. coli, UniProt P0A9M0 1-245, looked up)
chain: MNPERSERIEIPVLPLRDVVVYPHMVIPLFVGREKSIRCLEAAMDHDKKIMLVAQKEASTDEPGVNDLFTVGTVASILQMLKLPDGTVKVLVEGLQRARISALSDNGEHFSAKAEYLESPTIDEREQEVLVRTAISQFEGYIKLNKKIPPEVLTSLNSIDDPARLADTIAAHMPLKLADKQSVLEMSDVNERLEYLMAMMESEIDLLQVEKRIRNRVKKQMEKSQREYYLNEQMKAIQKELGEMD
notes: Lon protease, E. coli, UniProt P0A9M0, N-terminal domain, aa 1-245; also called NTD; NTD peptide; source: E. coli BL21 (DE3), purified (Strep-Tactin Sepharose)

Columns and labels:
Assay in all cases: SPR; Biacore X100; His-tagged ligand (~0.2 µM) captured on Ni-charged Sensor Chip NTA; Lon protein or domain injected at five dilutions; 25 °C, 30 µL/min; running buffer as printed 0.1 M HEPES, 1.5 M NaCl, 0.03 M EDTA, 0.5% v/v Surfactant P20; reference cell without nickel; 1:1 Langmuir fit
Conditions in all cases: both partners purified
[1] = biological target: T1, recombinant Escherichia coli Lon protease (aa 1-778) (E. coli, UniProt P0A9M0 1-778)
T1 construct: Lon protease, E. coli, UniProt P0A9M0, aa 1-778 as printed; Gene synthesised (GenScript) and cloned in a pASK-63 A+ vector (IBA); also called rLon; full-length Lon; source: E. coli BL21 (DE3), purified (Strep-Tactin Sepharose)

[2] = biological target: T2, His-tagged full-length c-MYC (human, UniProt P01106-1 1-439)
T2 construct: c-MYC, human, full length; see the vendor's catalogue entry; source: bought: Cusabio, CSB-EP015270HU

[3] = biological target: B1

T2 sequence (P01106 16-454): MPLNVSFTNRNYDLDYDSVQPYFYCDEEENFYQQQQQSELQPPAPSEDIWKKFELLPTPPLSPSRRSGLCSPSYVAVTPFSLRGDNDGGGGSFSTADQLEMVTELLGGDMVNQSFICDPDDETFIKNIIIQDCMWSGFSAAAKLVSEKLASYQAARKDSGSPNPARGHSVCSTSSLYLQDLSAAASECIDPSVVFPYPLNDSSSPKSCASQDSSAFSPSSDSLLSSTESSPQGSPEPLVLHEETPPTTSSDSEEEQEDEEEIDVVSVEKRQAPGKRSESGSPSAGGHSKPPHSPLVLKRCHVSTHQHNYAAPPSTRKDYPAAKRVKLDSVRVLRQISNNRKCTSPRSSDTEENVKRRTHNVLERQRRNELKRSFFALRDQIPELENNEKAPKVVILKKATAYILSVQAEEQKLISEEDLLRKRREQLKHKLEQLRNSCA

| Binder | binding result [1] | Kd [2] [µM] | Kd [3] [µM] |
| --- | --- | --- | --- |
| B1 | binds | – | – |
| B2 | – | < 1 | < 1 |
